Source: publication PMC12102759 (2025)

B1: SH3BP2 peptide 408-423 (SH3 domain-binding protein 2), 16-mer library wild type / TNKS ANK (TNKS 12 ANK repeats, residues 174-649) (parent complex)
chain 1: PQLPHLQRSPPDGQSF
chain 2: TGVPAVSGALRELLEACRNGDVSRVKRLVDAANVNAKDMAGRKSSPLHFAAGFGRKDVVEHLLQMGANVHARDDGGLIPLHNACSFGHAEVVSLLLCQGADPNARDNWNYTPLHEAAIKGKIDVCIVLLQHGADPNIRNTDGKSALDLADPSAKAVLTGEYKKDELLEAARSGNEEKLMALLTPLNVNCHASDGRKSTPLHLAAGYNRVRIVQLLLQHGADVHAKDKGGLVPLHNACSYGHYEVTELLLKHGACVNAMDLWQFTPLHEAASKNRVEVCSLLLSHGADPTLVNCHGKSAVDMAPTPELRERLTYEFKGHSLLQAAREADLAKVKKTLALEIINFKQPQSHETALHCAVASLHPKRKQVTELLLRKGANVNEKNKDFMTPLHVAAERAHNDVMEVLHKHGAKMNALDTLGQTALHRAALAGHLQTCRLLLSYGSDPSIISLQGFTAAQMGNEAVQQILSESTPIRTSD

Variants of: B1
Experiment: proteomic peptide phage display deep mutational scan (ProP-PD DMS): M13 P8 16-mer library selected against immobilised GST-tagged bait for four days (rounds), NGS of the eluted pools per day and pseudo-replica; bait immobilised on MaxiSorp plates (10 µg), library pre-cleared on GST, 2 h binding at 4 °C, five washes; one round per day, days 1-4; value from days 2 and 3

Variant	screen value
chain 1 PVLPHLQRSPPDGQSF [chain 1 Q2V]	0.000821 average fractional NGS count over selection days 2 and 3 (reads of this peptide / all reads for the bait, averaged over …
chain 1 PILPHLQRSPPDGQSF [chain 1 Q2I]	0.000434 average fractional NGS count over selection days 2 and 3 (reads of this peptide / all reads for the bait, averaged over …
chain 1 PQLPHLQRQPPDGQSF [chain 1 S9Q]	0.00451 average fractional NGS count over selection days 2 and 3 (reads of this peptide / all reads for the bait, averaged over …
chain 1 PQLPHLQRNPPDGQSF [chain 1 S9N]	0.000282 average fractional NGS count over selection days 2 and 3 (reads of this peptide / all reads for the bait, averaged over …
chain 1 PQLPHLQRHPPDGQSF [chain 1 S9H]	0.00219 average fractional NGS count over selection days 2 and 3 (reads of this peptide / all reads for the bait, averaged over …
chain 1 PQLPHLQRLPPDGQSF [chain 1 S9L]	0.00406 average fractional NGS count over selection days 2 and 3 (reads of this peptide / all reads for the bait, averaged over …
chain 1 PQLPHLQRYPPDGQSF [chain 1 S9Y]	0.000793 average fractional NGS count over selection days 2 and 3 (reads of this peptide / all reads for the bait, averaged over …
chain 1 PQLPHLQRWPPDGQSF [chain 1 S9W]	0.000206 average fractional NGS count over selection days 2 and 3 (reads of this peptide / all reads for the bait, averaged over …
chain 1 PQLPHLQRDPPDGQSF [chain 1 S9D]	0.00106 average fractional NGS count over selection days 2 and 3 (reads of this peptide / all reads for the bait, averaged over …
chain 1 PQLGHLQRSPPDGQSF [chain 1 P4G]	0.000551 average fractional NGS count over selection days 2 and 3 (reads of this peptide / all reads for the bait, averaged over …
chain 1 PQLVHLQRSPPDGQSF [chain 1 P4V]	0.000162 average fractional NGS count over selection days 2 and 3 (reads of this peptide / all reads for the bait, averaged over …
chain 1 PQLTHLQRSPPDGQSF [chain 1 P4T]	0.000173 average fractional NGS count over selection days 2 and 3 (reads of this peptide / all reads for the bait, averaged over …
chain 1 PQLNHLQRSPPDGQSF [chain 1 P4N]	0.000673 average fractional NGS count over selection days 2 and 3 (reads of this peptide / all reads for the bait, averaged over …
chain 1 PQLYHLQRSPPDGQSF [chain 1 P4Y]	0.000273 average fractional NGS count over selection days 2 and 3 (reads of this peptide / all reads for the bait, averaged over …
chain 1 PQLPTLQRSPPDGQSF [chain 1 H5T]	0.000644 average fractional NGS count over selection days 2 and 3 (reads of this peptide / all reads for the bait, averaged over …
chain 1 PQLPILQRSPPDGQSF [chain 1 H5I]	0.000472 average fractional NGS count over selection days 2 and 3 (reads of this peptide / all reads for the bait, averaged over …
chain 1 PQLPPLQRSPPDGQSF [chain 1 H5P]	0.000222 average fractional NGS count over selection days 2 and 3 (reads of this peptide / all reads for the bait, averaged over …
chain 1 PQLPYLQRSPPDGQSF [chain 1 H5Y]	0.000149 average fractional NGS count over selection days 2 and 3 (reads of this peptide / all reads for the bait, averaged over …
chain 1 PQLPHLQRSPPDGQSQ [chain 1 F16Q]	0.000905 average fractional NGS count over selection days 2 and 3 (reads of this peptide / all reads for the bait, averaged over …
chain 1 PQLPHLQRSPPDGQSE [chain 1 F16E]	0.000221 average fractional NGS count over selection days 2 and 3 (reads of this peptide / all reads for the bait, averaged over …
chain 1 PQLPHLQRSPPDGQSA [chain 1 F16A]	0.00179 average fractional NGS count over selection days 2 and 3 (reads of this peptide / all reads for the bait, averaged over …
chain 1 PQLPHLQRSPPDGQSD [chain 1 F16D]	0.000232 average fractional NGS count over selection days 2 and 3 (reads of this peptide / all reads for the bait, averaged over …

Variant	screen value
chain 1 PQLPHLQRSPPDGQSM [chain 1 F16M]	0.00196 average fractional NGS count over selection days 2 and 3 (reads of this peptide / all reads for the bait, averaged over …
chain 1 PQLPHLQRSPADGQSF [chain 1 P11A]	0.000639 average fractional NGS count over selection days 2 and 3 (reads of this peptide / all reads for the bait, averaged over …
chain 1 PQLPHLQRSPPDGASF [chain 1 Q14A]	0.00095 average fractional NGS count over selection days 2 and 3 (reads of this peptide / all reads for the bait, averaged over …
chain 1 PQLPHLQRSPPDGLSF [chain 1 Q14L]	0.000462 average fractional NGS count over selection days 2 and 3 (reads of this peptide / all reads for the bait, averaged over …
chain 1 PQLPHLQRSPPDGKSF [chain 1 Q14K]	0.00049 average fractional NGS count over selection days 2 and 3 (reads of this peptide / all reads for the bait, averaged over …
chain 1 PQLPHLQRSPPDGRSF [chain 1 Q14R]	0.000901 average fractional NGS count over selection days 2 and 3 (reads of this peptide / all reads for the bait, averaged over …
chain 1 PQLPHLQRSPPDGNSF [chain 1 Q14N]	0.000561 average fractional NGS count over selection days 2 and 3 (reads of this peptide / all reads for the bait, averaged over …
chain 1 PQLPHLQRSPPDGTSF [chain 1 Q14T]	0.00291 average fractional NGS count over selection days 2 and 3 (reads of this peptide / all reads for the bait, averaged over …
chain 1 PQLPHLQRSPPDGFSF [chain 1 Q14F]	0.000219 average fractional NGS count over selection days 2 and 3 (reads of this peptide / all reads for the bait, averaged over …
chain 1 PQLPHLQRSPPDGHSF [chain 1 Q14H]	0.00138 average fractional NGS count over selection days 2 and 3 (reads of this peptide / all reads for the bait, averaged over …
chain 1 PQLPHLQRSPPDGQRF [chain 1 S15R]	0.000309 average fractional NGS count over selection days 2 and 3 (reads of this peptide / all reads for the bait, averaged over …
chain 1 PQLPHLQRSPPDGQQF [chain 1 S15Q]	0.000297 average fractional NGS count over selection days 2 and 3 (reads of this peptide / all reads for the bait, averaged over …
chain 1 PQLPHLQRSPPDGQWF [chain 1 S15W]	0.000372 average fractional NGS count over selection days 2 and 3 (reads of this peptide / all reads for the bait, averaged over …
chain 1 PQYPHLQRSPPDGQSF [chain 1 L3Y]	0.000217 average fractional NGS count over selection days 2 and 3 (reads of this peptide / all reads for the bait, averaged over …
chain 1 PQHPHLQRSPPDGQSF [chain 1 L3H]	0.000462 average fractional NGS count over selection days 2 and 3 (reads of this peptide / all reads for the bait, averaged over …
chain 1 PQKPHLQRSPPDGQSF [chain 1 L3K]	0.000138 average fractional NGS count over selection days 2 and 3 (reads of this peptide / all reads for the bait, averaged over …
chain 1 PQQPHLQRSPPDGQSF [chain 1 L3Q]	0.000641 average fractional NGS count over selection days 2 and 3 (reads of this peptide / all reads for the bait, averaged over …
chain 1 PQFPHLQRSPPDGQSF [chain 1 L3F]	0.000552 average fractional NGS count over selection days 2 and 3 (reads of this peptide / all reads for the bait, averaged over …
chain 1 PQLPHLQRSVPDGQSF [chain 1 P10V]	0.00118 average fractional NGS count over selection days 2 and 3 (reads of this peptide / all reads for the bait, averaged over …
chain 1 PQLPHLQRSAPDGQSF [chain 1 P10A]	0.000707 average fractional NGS count over selection days 2 and 3 (reads of this peptide / all reads for the bait, averaged over …
chain 1 PQLPHLQRSLPDGQSF [chain 1 P10L]	0.00106 average fractional NGS count over selection days 2 and 3 (reads of this peptide / all reads for the bait, averaged over …
chain 1 PQLPHLQRSFPDGQSF [chain 1 P10F]	0.000203 average fractional NGS count over selection days 2 and 3 (reads of this peptide / all reads for the bait, averaged over …

Variant	screen value
chain 1 PQLPHLQESPPDGQSF [chain 1 R8E]	0.000101 average fractional NGS count over selection days 2 and 3 (reads of this peptide / all reads for the bait, averaged over …
chain 1 PQLPHLVRSPPDGQSF [chain 1 Q7V]	0.00169 average fractional NGS count over selection days 2 and 3 (reads of this peptide / all reads for the bait, averaged over …
chain 1 PQLPHLHRSPPDGQSF [chain 1 Q7H]	0.00147 average fractional NGS count over selection days 2 and 3 (reads of this peptide / all reads for the bait, averaged over …
chain 1 PQLPHLMRSPPDGQSF [chain 1 Q7M]	0.00158 average fractional NGS count over selection days 2 and 3 (reads of this peptide / all reads for the bait, averaged over …
chain 1 PQLPHLSRSPPDGQSF [chain 1 Q7S]	0.000276 average fractional NGS count over selection days 2 and 3 (reads of this peptide / all reads for the bait, averaged over …
chain 1 PQLPHLFRSPPDGQSF [chain 1 Q7F]	0.00823 average fractional NGS count over selection days 2 and 3 (reads of this peptide / all reads for the bait, averaged over …
chain 1 PQLPHLYRSPPDGQSF [chain 1 Q7Y]	0.00125 average fractional NGS count over selection days 2 and 3 (reads of this peptide / all reads for the bait, averaged over …
chain 1 PQLPHLLRSPPDGQSF [chain 1 Q7L]	0.00476 average fractional NGS count over selection days 2 and 3 (reads of this peptide / all reads for the bait, averaged over …
chain 1 PQLPHYQRSPPDGQSF [chain 1 L6Y]	0.000851 average fractional NGS count over selection days 2 and 3 (reads of this peptide / all reads for the bait, averaged over …
chain 1 PQLPHMQRSPPDGQSF [chain 1 L6M]	0.000442 average fractional NGS count over selection days 2 and 3 (reads of this peptide / all reads for the bait, averaged over …
chain 1 PQLPHSQRSPPDGQSF [chain 1 L6S]	0.000251 average fractional NGS count over selection days 2 and 3 (reads of this peptide / all reads for the bait, averaged over …
chain 1 PQLPHVQRSPPDGQSF [chain 1 L6V]	0.000569 average fractional NGS count over selection days 2 and 3 (reads of this peptide / all reads for the bait, averaged over …
chain 1 PQLPHHQRSPPDGQSF [chain 1 L6H]	0.000142 average fractional NGS count over selection days 2 and 3 (reads of this peptide / all reads for the bait, averaged over …
chain 1 PQLPHGQRSPPDGQSF [chain 1 L6G]	0.000481 average fractional NGS count over selection days 2 and 3 (reads of this peptide / all reads for the bait, averaged over …
chain 1 PQLPHDQRSPPDGQSF [chain 1 L6D]	0.00436 average fractional NGS count over selection days 2 and 3 (reads of this peptide / all reads for the bait, averaged over …
chain 1 PQLPHEQRSPPDGQSF [chain 1 L6E]	0.00197 average fractional NGS count over selection days 2 and 3 (reads of this peptide / all reads for the bait, averaged over …
chain 1 PQLPHAQRSPPDGQSF [chain 1 L6A]	0.00118 average fractional NGS count over selection days 2 and 3 (reads of this peptide / all reads for the bait, averaged over …
chain 1 PQLPHLQRSPPAGQSF [chain 1 D12A]	0.000288 average fractional NGS count over selection days 2 and 3 (reads of this peptide / all reads for the bait, averaged over …
chain 1 PQLPHLQRSPPVGQSF [chain 1 D12V]	0.000643 average fractional NGS count over selection days 2 and 3 (reads of this peptide / all reads for the bait, averaged over …
chain 1 PQLPHLQRSPPLGQSF [chain 1 D12L]	0.000574 average fractional NGS count over selection days 2 and 3 (reads of this peptide / all reads for the bait, averaged over …
